Data from the DeepSol protein solubility set.

Assay: soluble on expression in E. coli; label from the status in PepcDB or PDB records

Row | Sequence | soluble on expression in E. coli
1 | MLKCVMSGSQVKVFGKAVQALSRISDEFWLDPSKKGLALRCVNSSRSAYGCVLFSPVFFQHYQWSALVKMSENELDTTLHLKCKLGMKSILPIFRCLNSLERNIEKCRIFTRSDKCKVVIQFFYRHGIKRTHNICFQESQPLQVIFDKNVCTNTLMIQPRLLADAIVLFTSSQEEVTLAVTPLNFCLKSSNEESMDLSNAVHSEMFVGSDEFDFFQIGMDTEITFCFKELKGILTFSEATHAPISIYFDFPGKPLALSIDDMLVEANFILATLADEQSRASSPQSLCLSQKRKRSDLIEKKAGKNVTGQALECISKKAAPRRLYPKETLTNISALENCGSPAMKRVDGDVSEVSESSVSNTEEVPGSLCLRKFSCMFFGAVSSDQQEHFNHPFDSLARASDSEEDMNNGSFSIFLEHHHHHH | not soluble
2 | MGSDKIHHHHHHMISTEYRPKSLLEEFVVCFYFNKSDNFEYADYANPTTNQEMFFNLGDDFELKNSIGQVTSQRSWISGLQSKSLPIKCSGRHITAGVIFKPWGLYAAFGINAKELANKTIYSKWLCDLSNELDNSEFSESQFFDLMEFNLLKSIKRSKMTKVMQKIVNEIEQENVFTLSEKLNRSKKTIIESFNKMIGLSPHKFYTLKCICETITLLQNNPTIKLTELAYNQGFYDQAHFIRVFKEHTGLTPKEFRNSIMKR | not soluble
3 | SENWDLSSDEMQDGNAPELDVIEEHNPVTRDDENANPEEVVGDTRSPVQNILGKFEGDINKRLHIKRKRMETYIKDSFKDSNVKLEQLWKTNKQERKKINNKFCEQYITTFQKFDMDVQKFNEEQEKSVNNYQKEQQALKLSKCSQSQTLEAIKDMHENYMEGLMNLETNNYNMLFDVDGELRKEMSVFKKDLMKHTLKYSSSFPSSD | not soluble
4 | MFTLRELPFAKDSMGDFLSPVAFDFHHGKHHQTYVNNLNNLIKGTDFEKSSLFAILTKSSGGVFNNAAQIYNHDFYWDCLSPKATALSDELKGALEKDFGSLEKFKEDFIKSATTLFGSGWNWAAYNLDTQKIEIIQTSNAQTPVTDKKVPLLVVDVWEHAYYIDHKNARPVYLEKFYGHINWHFVSQCYEWAKKEGLGSVDYYINELVHKKL | soluble
5 | MSAYIAPSQIAQRQLEYFNGKHVLVAGEVEDMFPLELTAHCESVEVFTSNYSYFRQIRHSDKIKSHFGSEFDVETQADMLLLYWPKAKAEAEYLLAMLMAKLGVNTEIVVVGENRSGVKSIEKMFKEYGPVNKYDSARRCSFYWGNCLNEPKPFNQEEWFKSYTVTLGEQSLTVKSLPGVFSHGEFDLGSRLLLETLPNLSGKVLDFGCGAGVLGAFMAKANPEIAIEMCDINAYAITSSQATLEANGLSGRVFASDIYSDTANDYRFIISNPPFHSGLDTNYNAAETLLGHAPQHLSNHGEMIIVANSFLKYPPIIENAFNNCETLNKTNKFSIYYAKKS | not soluble
6 | MKHQHQHQHQHQHQQPLNEEFRPEMLQGKKVIVTGASKGIGREMAYHLAKMGAHVVVTARSKETLQKVVSHCLELGAASAHYIAGTMEDMTFAEQFVAQAGKLMGGLDMLILNHITNTSLNLFHDDIHHVRKSMEVNFLSYVVLTVAALPMLKQSNGSIVVVSSLAGKVAYPMVAAYSASKFALDGFFSSIRKEYSVSRVNVSITLCVLGLIDTETAMKAVSGIVHMQAAPKEECALEIIKGGALRQEEVYYDSSLWTTLLIRNPSRKILEFLYSTSYNMDRFINK | soluble
7 | MGHHHHHHSHMAGEKAQKKGKEKWKEKTWYTVESPPYLGSKEVTVALGEDPESMVNRIVEVPISDLTGNFKKSNEKALFRITGCEGTKCKTIFIGHYIGDDYIRRLVRRRKERIDIIEDVKTSDGSIITVKIVVVSDGKLTNTKKSEIRKALTSFIVSKGSQLSYADFVRYLIGDDSYNDMVEATKNIYPLRKIEIRKSELVSLSGMQEPQKNEPAPGGEAIAQN | not soluble
8 | GAKSEMAFAGKGEISPRAITMWDFSWLERRWPGAGYEDWDQVLDELSERGYNAIRIDAYPHLIAENPMKKWLLKEVWNQQDWGSPDMNEVQVQPNLNLFLSKCKERDIKVGLSSWYRLDVDEVCLKLDTPEKLADCWLTILRSIEEDGLLDTILYVDLCNEWPGDSWAPFFAKTYPNVGWGNWYKEESLRWMKTSLEKMRQVYPDMPFLYSFDHGDVKKYEEVDCSFLDLYEHHIWMAQQNGGEFYKLVGYGYNRFLPDDYKNVVKNAERVYRERPGYWQKLLTDKIELMASVARKNRRPLVTTECWGLVDYKDWPLLKWDWVKDLCELGTITAARTGMWVGVATSNFCGPQFAGMWRDVEWHKRLTSIIRSSPLDESLTKNNEVAAKLLKRL | soluble
9 | MSRPFTGATLCTTIAPHCSRTTAMTTLPAASPEALATSQALCGRISQAIAEAGGWIPFSHYMELALYAPGMGYYAAGSRKLGEDGDFVTAPELTPLFGQSLARQLAELLPQTAGAVYEFGAGTGKLAIDLLAELKALNQLPAKYVILDLSPDLIDRQRQNIRAALPHLADRVEWASSLPDAIDGIVIGNELLDAMPCEMVFRDEDRRLRQRGVTVRDGALCYEDRDFADSRLAELAAQLLPDIPRYETEISLANRAFIATVAGALTRGAILMIDYGHAASEYYHPERSMGTLLGHYRHHTVQDPFYLPGLMDLTCHVDFTAVAQSGIDAGLDLIGYTSQAQFLVNCGLIERLQTLDADDVKAYLPIAKAAQRLLSPQEMGETFKAIGFGKGVSIDWLGFARGDRCYTLLEHHHHHH | soluble
10 | MIMANILFIDNFDSFTYNLVDQFRSLGHVVTIYRNNLSADAIEQALLQLDNPVVVLSPGPGAPSETGCMPELLQRLKGKVPMIGICLGHQAIVEAYGGVVAGAGEIIHGKVSMMEHQNHAIYRGLPSPLAIARYHSLVATQVPSALTVTAEVNGLVMSVVNEADKVCGFQFHPESIMTTHGATLLANAIDWALSSTPAQTQFA | not soluble
11 | MSNNIVPSSVLPAGENLLTVPDYAERIGQPVTRVFDQIGEHKLICVLDNGIKKIPEAFLSEKGTTNKFVPGVIALLSDGGYTDQEIFKFLFTEDESLPGRPIDAIHGHLAREVMRRAQAMGF | soluble
12 | MSLTITVLQGGNVLDLERGVLLEHHHVVIDGERIVEVTDRPVDLPNAQAIDVRGKTVMPGFIDCHVHVLASNANLGVNATQPNILAAIRSLPILDAMLSRGFTSVRDAGGADWSLMQAVETGLVSGPRIFPSGKALSQTGGHGDFRPRGDLLEPCSCCFRTGAIARVVDGVEGVRLAVREEIQKGATQIKIMASGGVASPTDPIANTQYSEDEIRAIVDEAEAANTYVMAHAYTGRAIARAVRCGVRTIEHGNLVDEAAAKLMHEHGAFVVPTLVTYDALAKHGAEFGMPPESVAKVASVQQKGRESLEIYANAGVKMGFGSDLLGEMHAFQSGEFRIRAEVLGNLEALRSATTVAAEIVNMQGQLGVIAVGAIADLVVLDGNPLEDIGVVADEGARVEYVLQRGTLVKRQAAGREGHHHHHH | soluble
13 | MIFGVSRTAGMQPHQNKLPPAFPICPPRFLQNKPPAPPLREAVRHSEYPDPRYEMTFQTAFAPPRFEYSGLTLNQDKATKPQTV | not soluble
14 | MLINVNFNELLLELDSLSVYRNLLNDSVIKKLYELGDLIYKKEPGTDEFIKKYNEFFFELTSGSIQSLKEHIIELILFDENPYSRQSEKLPFENIDKVLIDAASKDLDRLHVISALTSRKFKDYALENICKSESEKRFIDSLPAWEFDGRSNQGKRKLSQNCQKMIDVLVSSNKWGECVKNLSDFYFTNGSGIFARYHAFVWEPSEKPSLRGVEFPDPIRLSDFIGYEQQRLEVIENTEKFVRGLPANNVLLYGDRGTGKSSTVKAIANEYREQGLRIIEIPRKYLVDFPAVLKLIKGRSCKFIIFIDDLAFEDSEESYTVLKSVLEGGVENRPDNVLIYATSNRRHLIKEKFSDRAGFKSDDPDDEIRAQDTMQEKLSLSERFGITVVFSSPDKKQFLQIVEGLVAKRGINIDKDTLQREAMKWELMYNGRSARTARQFVDWLEGSMKLKK | soluble
15 | MWVDGMAKVVEVGRICVKTRGREAGRKCVIVDIIDENFVLVTGPKSLTGVRRRRVNIDHIEILDKKVDIQKGASDEEVLKALEEAGLADFMREPVRIARITPFTLLEHHHHHH | not soluble
16 | GSHMRIPATIKKKMALPPATPVFTGEKKVEETKITAAIYDEKSVEFKELEVGELESVVRSALALNKKLWIDVVGVHDESLIAKICEFLGIHPLAAEDILNTAQRVKIEDYDDHLFLVLKILLYNETLEIDQLSLVLKKNLVATFEEREYWILDSIRSRLKSGGRMRKLAGDYLAYTILDAVVDSYFEALLKISDEIEVLEDEVVSGDSTLIGKIHSLKREILAFRNAVWPLRDVLSFFTRVEHELIGEEVKVYYRDVYDHAVRLME | soluble
17 | MGSDKIHHHHHHMPAKTLYCATLASLNGLSDNRNATGISFIFQGGAVEEMQKVLVNEKGMAWITCEKCSHTSGIDVSRLSDRAPFIRYKCVKCDAEFDVACEFRKSYRKEVHLNGVFIQQQPREDYAGRIEILDISKTGVRFKTRVKFDFKPGYLLKLSFSLDDAKKTNINQTVEVKWVNGQLVGGEFRNQDHWTSQQLGFYFMS | not soluble
18 | SLIENSHVKKDDIWPSGGQMTVKDLTAKYTEGGNAILENISFSISPGQRVGLLGRTGSGKSTLLSAFLRLLNTEGEIQIDGVSWDSITLEQWRKAFGVIPQKVFIFSGTFRKNLDPYEQWSDQEIWKVADEVGLRSVIEQFPGKLDFVLVDGGCVLSHGHKQLMCLARSVLSKAKILLLDEPSAHLDPVTYQIIRRTLKQAFADCTVILCEARIEAMLECDQFLVIEENKVRQYDSIQKLLNERSDFRQAISPSDGPSAQLEKELQALEKENAQLEWELQALEKELAQ | soluble
19 | MSHFTQLKTKLTNRDCLVQALEDLKLQPHVFEQPQPLAGYYMDSQGYSAEIIIFGRTIKARADIGFRWNQSSGVYEVIHDEYETSPRLGEDFFSHKLMQTYGRRMVLAKTEELREKFGECTISEETKGQVQTLRLTFAGHQEVKQYARRLEHHHHHH | not soluble
20 | MKKTHVTIGLSNPKSPTNVGAVMRAAGCYQVDDVRYTGERYDRAAKFQTDTKKVASKIPLTSVNCLLDDLPEDMKVVCVELAEGAVSLPQFQHPDKAIYVFGPEDGSITQQVADRADHVVYVPTVGCMNLAATVNVLLYDRLAK | not soluble
21 | MITLNHIAKTYYQGKLAVPILHGISLTIQSGEFVSIMGPSGSGKSTLMNIIGCLDRPTEGEYMLNDVNILTADESKLALIRNEYIGFVFQHFNLLPRLSAVENVELPLVYGGIKKAERRKRALEALGKVGLADRVHHLPNELSGGQKQRVAIARAIANNPTFIMADEPTGALDTKSGEQVMDIFTKLNAEGTTIVMVTHEEEVAAYSSRRIVLRDGKITEDRRCAV | not soluble
22 | SLKKWLVTIAALWLAGCSSGEINKNYYQLPVVQSGTQSTASQGNRLLWVEQVAVPDYLAGNGVVYQTSDVKYVIANNTLWASPLDQQLRNTLVANLSTQLPGWVVASQPLGSAQDTLNVTVTEFNGRYDGKVIVSGEWLLNHQGQLIKRPFRLEGMQTQDGYDEMVKVLASVWSQEAASIAQEIKRLP | soluble
23 | MGSDKIHHHHHHMVDSLKKPGFEEIRPGVKVPAKETLLTPRFYTTDFDEMARMDISVNEDELLAILEEFRTDYNRHHFVRDAEFEKSWDHIDGDTRRLFVEFLERSCTAEFSGFLLYKELGRRLKDKSPVLAECFNLMSRDEARHAGFLNKAMSDFNLSLDLGFLTKSRNYTFFKPKFIFYATYLSEKIGYWRYITIYRHLEAHPEDRIYPIFRFFENWCQDENRHGDFFDAIMKSQPQMLNDWKAKLWSRFFLLSVFATMYLNDIQRKDFYASIGLDARDYDIYVIKKTNETAGRVFPVILDVDSPEFYERLDICVENSEKLSAIASSNTPKFLQFFQKLPVLASTGWQLLRLYLMKPIDAVSAQGAAR | not soluble
